Test results from PMC8336894 (Genes & Development, 2021).

Biological target: T1, CRY1 (human (endogenous in HEK293), UniProt Q16526 1-586)
T1 sequence (looked up): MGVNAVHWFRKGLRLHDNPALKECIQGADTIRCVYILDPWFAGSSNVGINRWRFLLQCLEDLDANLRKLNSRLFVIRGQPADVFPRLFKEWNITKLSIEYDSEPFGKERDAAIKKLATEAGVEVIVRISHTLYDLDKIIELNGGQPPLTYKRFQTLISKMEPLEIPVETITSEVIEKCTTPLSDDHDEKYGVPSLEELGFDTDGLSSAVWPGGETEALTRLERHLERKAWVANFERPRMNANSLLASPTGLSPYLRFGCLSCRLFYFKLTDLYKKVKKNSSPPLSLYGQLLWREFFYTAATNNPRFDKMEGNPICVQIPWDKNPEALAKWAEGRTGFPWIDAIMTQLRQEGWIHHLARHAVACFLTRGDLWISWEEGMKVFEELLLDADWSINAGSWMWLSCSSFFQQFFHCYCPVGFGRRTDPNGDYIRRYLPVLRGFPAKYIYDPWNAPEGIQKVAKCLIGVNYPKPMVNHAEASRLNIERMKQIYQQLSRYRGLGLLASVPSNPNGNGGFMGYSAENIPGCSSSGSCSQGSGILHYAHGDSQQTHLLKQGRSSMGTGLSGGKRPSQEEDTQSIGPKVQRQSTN
Experiment: co-IP

B1: BMAL1-luciferase fusion protein (natural protein)
chain: not shown
fold luciferase activity in the precipitate over the IgG control: ~3 fold
